Values of other authors as cited in publication PMC8594252.

Target: HSPE1 (Homo sapiens) (UniProt P61604)

Kd: 3000 nM
Substance: HSPE1 (from UniProt P61604)
